Laboratory results: patent US20220267415A1 (University of Texas, published 2022)

B1: anti-SARS-CoV2-14 IgM (full lambda light chain) (antibody)
heavy: EVQLQQSGPGLVKPSQTLSLTCAISGDSVSSNSAAWNWIRQSPSRGLEWLGRTYYRSKWYNDYAVSVKSRITINPDTSKNQFSLQLNSVTPEDTAVYYCAREEQQLVHDYYYYGMDVWGQGTMVTVSSGSASAPTLFPLVSCENSPSDTSSVAVGCLAQDFLPDSITFSWKYKNNSDISSTRGFPSVLRGGKYAATSQVLLPSKDVMQGTDEHVVCKVQHPNGNKEKNVPLPVIAELPPKVSVFVPPRDGFFGNPRKSKLICQATGFSPRQIQVSWLREGKQVGSGVTTDQVQAEAKESGPTTYKVTSTLTIKESDWLSQSMFTCRVDHRGLTFQQNASSMCVPDQDTAIRVFAIPPSFASIFLTKSTKLTCLVTDLTTYDSVTISWTRQNGEAVKTHTNISESHPNATFSAVGEASICEDDWNSGERFTCTVTHTDLPSPLKQTISRPKGVALHRPDVYLLPPAREQLNLRESATITCLVTGFSPADVFVQWMQRGQPLSPEKYVTSAPMPEPQAPGRYFAHSILTVSEEEWNTGETYTCVVAHEALPNRVTERTVDKSTGKPTLYNVSLVMSDTAGTCY
light: QAVVTQPASVSGSPGQSITISCTGTSSDIGAYNYISWYQQHPGKAPKLIIYEVSNRPSGISYRFSGSKSGNTASLTISGLQAEDEANYYCSSYAGSISFGGGTKVTVLGQPKAAPSVTLFPPSSEELQANKATLVCLISDFYPGAVTVAWKADSSPVKAGVETTTPSKQSNNKYAASSYLSLTPEQWKSHRSYSCQVTHEGSTVEKTVAPTECS
chain: not shown
B2: anti-SARS-CoV2-14 IgG (full lambda light chain) (antibody, V domains shown)
VH: EVQLQQSGPGLVKPSQTLSLTCAISGDSVSSNSAAWNWIRQSPSRGLEWLGRTYYRSKWYNDYAVSVKSRITINPDTSKNQFSLQLNSVTPEDTAVYYCAREEQQLVHDYYYYGMDVWGQGTMVTVSS
VL: QAVVTQPASVSGSPGQSITISCTGTSSDIGAYNYISWYQQHPGKAPKLIIYEVSNRPSGISYRFSGSKSGNTASLTISGLQAEDEANYYCSSYAGSISFGGGTKVTVL

Columns and labels:
[1] = target: B.1.526 Iota variant spike protein on recombinant USA-WA1/2020 virus (SARS-CoV-2); assay: cell-based or functional assay
[2] = target: T1, wild type RBD protein (generated as in Ku et al. 2021) (SARS-CoV-2, UniProt P0DTC2 319-541); assay: BLI competition, RBD on sensor, antibody then ACE2; competitor ACE2
[3] = target: T1, wild type RBD protein (generated as in …)
[4] = target: T1, wild type RBD protein (generated as in …); assay: binding KD on RBD protein, generally as Example 4

Binder | Fold-Increase in potency of IgM over IgG [1] | Neutralization EC50 (PRNT) [1] | EC50 [2] | EC50 (read off the curve) [3] | Kd [4]
B1 | 5300 fold | 0.032 µg/mL | 0.86 nM | ~0.9 nM | < 0.001 nM
B2 | – | 170 µg/mL | – | – | –
